Source: the supplement of paper PMC10567573
± gives the standard deviation.

Experiment: protein stability index of a GFP-peptide fusion (GPS, HEK-293T) (PSI 1-6); higher = more stable
[1] = treatment: DMSO, c terminus: a fixed tail appended
[2] = treatment: MLN4924 1 uM, 8 h, c terminus: a fixed tail appended
[3] = treatment: DMSO, c terminus: native
[4] = treatment: MLN4924 1 uM, 8 h, c terminus: native
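Note: 24-mer peptide tiles fused after GFP, lentivirally expressed, FACS-sorted into six equal bins by GFP/DsRed ratio, decoded by Illumina sequencing, PSI is the read-weighted mean bin number.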

Sequence	protein stability index [1]	protein stability index [2]	protein stability index [3]	protein stability index [4]
KVTISNRLVSSPCCIVTSTYGWTA [HSP90AB1]	2.84 ± 0.9	2.51 ± 0.37		
RHSFRKHLYLLRGLPGSGKTTLAR [N4BP2L1]	2.5 ± 0.17	2.54 ± 0.37		
DFALINKLDIQCDLKTLSDDIKES [ATE1]	4.15 ± 0.14	4.18 ± 0.39		
LDQLRFPNGVQLSPAEDFVLVAET [APMAP]	3.09 ± 0.23	3.27 ± 0.23		
ELLLFAVGFIMAGTPMALIVISYI [OR3A1]	2.56 ± 0.033	3.09 ± 0.28		
LEENPYDLDAWSILIREAQNQPID [CSTF3]	3.74 ± 0.32	3.85 ± 0.31		
GLSPEEKEQLSNDRETQEGKPPTA [ELOA2]	5.6 ± 0.22	5.31 ± 0.46		
VLLGWTLHYFPFFLMGRVLYFHHY [POMT2]	2.96 ± 0.29	2.91 ± 0.42		
CGSFYREPIILPCSHNLCQACARN [TRIM9]	2.22 ± 0.25	2.19 ± 0.33		
VTEHPLELIRVEVEILDLNDNSPS [PCDHGC5]	2.92 ± 0.29	3 ± 0.41		
VKYPELVLEHSLDREEEAIHHLVL [PCDHGA10]	2.6 ± 0.096	2.63 ± 0.36		
PDAETLKVMKQPRCGVPDVAQFVL [MMP1]	2.4 ± 0.3	2.31 ± 0.27		
ERKGWLAPSPGVKEQAIWKHPQPA [PKD2L1]	3.52 ± 0.21	3.73 ± 0.41		
DANLDECIPATVRSSFANQGEICL [ALDH8A1]	4.08 ± 0.35	4.19 ± 0.41		
PRCPGSVNEKLPQREGTGKTVSLQ [SMOC2]	5.03 ± 0.14	5.03 ± 0.54		
QSSKRSSRSVEDDKEGHLVCRIGD [CLK3]	5.3 ± 0.43	5.17 ± 0.25		
FDRKKKSISLMYGGSKRKSSFFSS [SLA]	2.53 ± 0.22	2.68 ± 0.4		
TWWRVRNAANRTGYVPSNYVERKN [NCK2]	2.86 ± 0.14	3.06 ± 0.27		
PVPAFQSDGTDEPESKEPVEKEEE [SMG5]	5.57 ± 0.24	5.56 ± 0.24		
INSDTGVLYALRSFDYEQFHELQM [PCDHGA10]	2.2 ± 0.2	2.35 ± 0.29		
SGTQYVSTRQTQSWTAVTPQQTWA [C18orf25]	2.7 ± 0.29	3 ± 0.51		
DCAGSPQKPLCASDGRTFLSRCEF [SMOC2]	3.05 ± 0.48	3.27 ± 0.36		
TVLTRHSQPATPTPLQSRTSIVQA [PDLIM7]	3.77 ± 0.093	3.8 ± 0.28		

Sequence	protein stability index [1]	protein stability index [2]	protein stability index [3]	protein stability index [4]
RAGKMLMTLPLLRQTSTKAVQHFY [ESRRG]	2.28 ± 0.31	2.16 ± 0.37		
STRVCLQPIRGVEGSDYINASFID [PTPRD]	3.18 ± 0.29	3.25 ± 0.41		
TEGGNDDSDFRELHTAREFSEEDE [RTN2]	5.42 ± 0.36	5.13 ± 0.71		
GSLDLVPGGLTLEEHSLEQVQSMV [SPDEF]	4.35 ± 0.38	4.66 ± 0.21		
FYDKQLKVLLSGATFLVTFGNSEK [ZFYVE21]	2.45 ± 0.67	2.54 ± 0.54		
YGHDYPRAAYQQVIQPALPGQPLP [TRAF3IP2]	2.55 ± 0.71	3.25 ± 0.69		
NGLTLLILGVIGLFTIPLLYRQHQ [RTN2]	3.39 ± 0.37	2.93 ± 0.71		
KIEIQTLTGLFKGDKCHSLVGKPK [CASP6]	3.01 ± 0.12	3.15 ± 0.42		
EERFRPLTFHGLILRSQLVTLLVR [CLCN6]	2.79 ± 0.63	2.51 ± 0.36		
DGDKNNDGRIDFDEFLKMMEGVQ [TNNC2]			4.63 ± 0.43	4.54 ± 0.42
SDYFCAMFTSELSEKGKPYVDIQG [KLHL12]	2.53 ± 0.14	2.91 ± 0.27		
RELTGLKALYETELADARRALDDT [LMNB1]	4.76 ± 0.31	4.77 ± 0.094		
LCDVTLMPGDTDDAFPVHRVMMAS [KLHL13]	3.03 ± 0.34	3.2 ± 0.19		
ACCGGFLEVADFLIKAGADIELGC [ANKRD17]		3.05 ± 1.1		
AALKQAIKDKEAPLHVAQTRLYLR [TEKT4]	3.06 ± 0.15	3.07 ± 0.18		
PEPPPVSFQPYHPLHFRGSNGMS [TENT5D]			3.77 ± 0.29	3.91 ± 0.22
IRLGIEGYPTYKEKVKKRPGGRPE [BTBD10]	3.41 ± 0.54	3.42 ± 0.41		
PLYLLTWKIAPAMAAGNTVIAKPS [ALDH8A1]	2.04 ± 0.52	2.11 ± 0.4		
RSMVFKDVLLLGNDYIVPRHCPEL [HNF4A]	2.29 ± 0.14	2.23 ± 0.32		
MIIEHKIVIADVKLVADFQRYILY [ZNF277]	3.58 ± 0.73	2.74 ± 1.1		
WTDSEVDSSCSGQPIHLWQFLKEL [SPDEF]	2.93 ± 0.24	3.1 ± 0.39		
MSRSGDRTSTFDPSHSDNLLHGLN [KLHL14]	4.13 ± 0.24	4.09 ± 0.26		
GTKQGHLLLYRIRKDVGCNRFEVT [VPS39]	2.12 ± 0.37	2.41 ± 0.28		

Sequence	protein stability index [1]	protein stability index [2]	protein stability index [3]	protein stability index [4]
SSSINSPDRASGPEGSLSQTMAGS [FAM104A]	5 ± 0.16	5.04 ± 0.1		
YKPVVLLQGLSLIVTWFMLLYAQG [SLC19A2]	2.94 ± 0.42	3.02 ± 0.29		
HHKVYDLTKFLEEHPGGEEVLREQ [CYB5A]	4.44 ± 0.27	4.65 ± 0.19		
MATITCTRFTEEYQLFEELGKGAF [CAMK2A]	2.35 ± 0.23	2.44 ± 0.4		
TGITLLRVKFKSQQHRQGRSHHLE [PTGFR]	2.24 ± 0.29	2.44 ± 0.34		
RADEPQWSLYPSDSQVSEEVKTRH [CHGB]	5.18 ± 0.068	5.18 ± 0.064		
SHLLVAEPEKIYAMPDPTVPDSDI [ESRRG]	5.04 ± 0.081	5.08 ± 0.13		
TNSSSLRLPRQNSDGGQKNKPREH [WSB1]	5.02 ± 0.15	4.93 ± 0.072		
EHGATLAVIDSEKDMNFLKRYAGR [CD69]	3.84 ± 0.34	3.95 ± 0.27		
SPSEKNSSFTWSVPSSGYGAVTAS [SMTNL2]	3.65 ± 0.18	3.74 ± 0.073		
PGPKGDPGEKSHWGEGLHQLREAL [EMID1]	3.32 ± 0.13	3.46 ± 0.52		
SLPLQDELAFAEDLVLDEEGARAA [ESRRA]	3.52 ± 0.68	4.31 ± 0.58		
PFPAGPLAVAGGPRKTAAPVNALV [ESRRA]	3.7 ± 0.34	3.61 ± 0.31		
TAEDSNDIYILPSDNSGQVSPPES [BCL2L13]	5.2 ± 0.26	5.21 ± 0.1		
LRQLGCKDGKNWNSNQATDIMETS [SPOPL]	4.25 ± 0.24	4.28 ± 0.1		
QAIFHAVDQYLALPDVSLGRYAYV [MCOLN1]	3.16 ± 0.59	2.68 ± 0.31		
SPGLSYASHTVGFTPPTSLTRAGM [CCDC6]	3.01 ± 0.12	3.37 ± 0.31		
KPYKCQQCDKRFRWSSDLNKHLTT [ZNF75A]	2.18 ± 0.14	2.37 ± 0.17		
DLSMKGGASTTSTTPSALSGEPPT [NOL4L]	5.16 ± 0.32	5.28 ± 0.28		
LRQEMVNLRATDVRLMRQLLVINE [LURAP1L]	2.35 ± 0.081	2.48 ± 0.34		
TQLFIGGVTGWCTGFIFQKVGKLA [FUNDC2]	2.33 ± 0.39	2.32 ± 0.28		
ALMHVMQKRSRAIHSSDEGEDQAG [WAS]	4.25 ± 0.27	4.49 ± 0.13		
YSCACLASGSVLRLVDAVLGAEIR [HDAC6]	3 ± 0.68	2.89 ± 0.66		

Sequence	protein stability index [1]	protein stability index [2]	protein stability index [3]	protein stability index [4]
RDRVGHKSIPMRNLRARPAKCLS [SERPINB5]			2.34 ± 0.23	2.48 ± 0.24
NLANCERLIEVEDMMVMGRKPDPM [SMTNL2]	3.36 ± 0.25	3.48 ± 0.31		
NKHLTTHQGIKPYKCSWCGKSFSQ [ZNF75A]	2.35 ± 0.45	2.06 ± 0.37		
ASNWSTTGFGQGQGYTINVPWNQV [HDAC6]	2.14 ± 0.47	2.22 ± 0.43		
EERLKLSPSPSSRVTVSRASSSRS [LMNB1]	4.94 ± 0.15	5.03 ± 0.25		
HTLILMFIWFVCSLVYYGLTLSAG [SLC22A15]	2.42 ± 0.79	2.16 ± 0.36		
VNRFGTYPALASKNGKKWEILNFN [ACSBG2]	2.81 ± 0.28	2.71 ± 0.49		
CIELYFDEKYSIEPSWECKFDHIE [NETO1]	2.13 ± 0.42	2.24 ± 0.25		
SWLTRRAIRPENRAPGAGLGQDRQ [EMD]	3.98 ± 0.27	4.05 ± 0.19		
RGPRMCRFIRERDRAVNDYPSLYY [CDC25B]	2.17 ± 0.27	2.12 ± 0.39		
VVACDFSPDGALLATASYDTRVYI [WSB1]	3.41 ± 0.6	2.74 ± 0.83		
IPLDLGCTQVTQDGDIPNIPAEEN [FAM189A2]	5.48 ± 0.12	5.48 ± 0.18		
FPAEQYYRFHEHWRFVLQRLVFLA [TSN]	2.44 ± 0.42	2.22 ± 0.27		
GELLGEARYYLVQGLIEDCQLALQ [KCTD13]	2.15 ± 0.64	2.3 ± 0.28		
FRPEMKKHSWCLKRKNPPNERTV [N4BP2L1]			3.06 ± 0.2	3.04 ± 0.68
KIIAVGVIDILPNCVSSVYLYYDP [ATE1]	2.62 ± 0.42	3.19 ± 0.43		
ERYDPNIDQWSMLGDMQTAREGAG [KLHL12]	4.2 ± 0.25	4.33 ± 0.19		
TPMNHQKAVNDETCKASHITSSVF [FBXO34]	3.75 ± 0.075	3.77 ± 0.1		
ATLFFNPQESAILQLFHQDGTFSP [CLCN6]	2.25 ± 0.42	2.29 ± 0.074		
SPEPPSLYGALNPQYEFKEAAGSF [IRX6]	3.47 ± 0.24	3.6 ± 0.22		
